Results as given in publication doi:10.1101/2021.08.08.454510.

Target: fluorophore-conjugated GCK peptide (aa 59-74), wild type (human) (UniProt P35557)
Assay: fluorescence polarisation

TNKS ARC1-5 with a C-terminal (His)6 tag (from UniProt O95271 1-1327) (domain or fragment)
Kd: 500 nM
